The record followed here is the DeepSol protein solubility set.

A short description of the data set: soluble on expression in E. coli; label from the status in PepcDB or PDB records.
Turning to “MPGYAQYRSFSEDLSMNMEEIVALSVKHNVSDLHLCSAWPARWRIRGRMEAAPFDAPDVEELLREWLDDDQRAILLENGQLDFAVSLAENQRLRGSAFAQRQGISLALRLLPSHCPQLEQLGAPPVLPELLKSENGLILVTGATGSGKSTTLAAMVGYLNQHADAHILTLEDPVEYLYASQRCLIQQREIGLHCMTFASGLRAALREDPDVILLGELRDSETIRLALTAAETGHLVLATLHTRGAAQAVERLVDSFPAQEKDPVRNQLAGSLRAVLSQKLEVDKQEGRVALFELLINTPAVGNLIREGKTHQLPHVIQTGQKVGMLTFQQSYQQRVGEGRL”, the “soluble on expression in E. coli” value is listed as “not soluble”.

Consider “VAVNNISNLINSRIRLTGISSGLDTDAIIEQLMSVERAKVDKIKQEKQILEWKRDIYRDIINKLRSITDEYFNVLKPKTNFTSQSAFTSFKISSSNESVVTVTANASAASKVHSITVHSLASAAKIVGTSGLVDGIKGSNAVNTLSLQGKEINVTLDGVTKTIALEDYTSLSDLETKLESALAKAFGTGKIDVVTTGGSIEFKCLLNGSTLSISDTANNYISSLGFSNGQKNFITGNSDVNSDFSLYTDGSFKITVGNGTAQTINISDATSIDDLVAKIQQAIDSNSELSGKVHVSNDGSKLTFISVSGETVKLTSGDSNNVLDKLGFSDGATITATSSTVIDLSGNEKGKTFIININGVDKIIEIDKDYNDLDELASYIQNQLGGTVNVTKDASGSRLVFSTGGADRLIFKKGPEDGLEKLGFTANDNRSNRISLTTKLDSLSTIFKNDLNIADPDANVVFTINGQTIDVGKTYANATLSDVMNAINSSSAGVKITYDSLNDRFIMESKTMGATSEIELTDTDPANGLLKAMGLIGGTYTAGTDAEFDLDGVTGMKRSTNEFTIEGVTYSLKGVSSEPVKIDVKADIDAVVENIKNFVNSYNEMLAKINSVLTEERYRDYLPLTDDQKKAMSEDDIKLWEQKAKSGLLRSDSILENIVTNLRRALYDKVEGCSLSLYQIGITTGSYQDKGKLVIDEEKLRAALTDNYDAVVQLFTQGSQYTYSEALNDPNKRAVRYKEAGIAQRIYDILQDNIRITRNANGKKGILLEKAGIAGDLTEYDNLIVNEIKAKETLIDEMLVKIYKKEEYYYSKFAAMEKMLDAMNSQSMWLTQQFSNYY”, for which the “soluble on expression in E. coli” value is “soluble”.

Regarding “MKEETFYLVREDVLPDAMRKTLEVKKLLDRKKADSVADAVQKVDLSRSAFYKYRDAVFPFYTMVKEQIITLFFHLEDRSGALSQLLQAVADSGSNVLSIHQTIPLQGRANVTLSISTSAMEEDIHTLMNKLRKFDFVEKVEILGSGA”, the “soluble on expression in E. coli” value is recorded as “not soluble”.

As to “MKLSPATKSFIGKTVDISTFAIQWGFVPFVVYLGFKKGAEPMPNGQILPLSAMSLLWG”, the “soluble on expression in E. coli” value is reported as “not soluble”.

In the case of “MFDIGFGELLLVMVLGLIVLGPERLPVAVRTVASWIRTLRSLASTVQNELSQELKLQEFQESLKKVEKASLQNLSPELKASMDELKDAAEAMKRGYTETPSPQKSDDPKKSGDHSATVEPQSNIPLNDPEAAYDGVIEAETAVRPADSQQKPENAAVAENHNDGRHATSDEAVGNNNVKPEQSQPSAASARQPSDSRLEHHHHHH”, the “soluble on expression in E. coli” value is “not soluble”.

As to “GIALVLIAAGLGLARLLLGPEVVAALVQRGNLVQTVVASGHIETPYRVEIASQITGTVKDVLVKEGEQVHQGQQLVAIEASELQASVVQAEGAVAQAQARVRQLRELTKPAADEALKQAQANLLNAQAAYERASKLAASGYGTKATLDDATKNLDVARTQVRTAELQVFTTSPGGSDFVMAETQLGQALANLNTAQARLGYATIVAPRDGVLITRNVERGTVVQPGKALLVLAPAGDIQIVVQIDEKNLGQLALGQHAMASADAYPDKRFDATLSYINPSVDINRASVEIKLKVDDPPDYLRQDMTVSVDIATARRDDVVIVPARAVNDAAAAPYVLKASGGRAVRQPVKLGLRGVGFYEVIDGLVPGDRVIPLATGVKPD”, the “soluble on expression in E. coli” value is on record as “soluble”.

Regarding “MVGIRRNKGHGEATIFTLRELADATNNFSTECLLGRGGFGSVYKAFLNDRQVVAVKQLDLNGLQGNREFLVEVLMLSLLHHPNLVKLFGYCVDGDQRLLIYEYMPLGSLEDRLHDLRPGQEPLDWTTRMKIAADAAAGLEYLHDEAIPAVIYRDIKPSNILLGEGYNAKLSDFGLAKLGPVGDKTHVTTRVMGTHGYCAPEYLSTGKLTIKSDIYSFGVVFLELITGRRALDSNRPPDEQDLVAWARPLFKDQRKFPKMADPSLHGHFPKRGLFQALAIAAMCLQEKAKNRPSIREVAVALSYLASQTHESQNTAARHTLPGPSVPRVLDNQINQDTSLPSQHGVHMPPLAGTDHMVQEVKENCRSSSHRPGRGRVTPNGADRERALAEANVWVEAWRRQEKTSKMR”, the “soluble on expression in E. coli” value is “not soluble”.

Consider “EPPDGKAISDGFNLLQELSAVNRENQLTPLGRQLARLPVDPRMGRMLLEAAKQGSLQEVLIVASAMSVQDVRERPPERQQAADQAHAQWKDAD”, for which the “soluble on expression in E. coli” value was “not soluble”.

Take “MEIGDVSTGYLEDALIEFSGRSKRRRLSFNGAEDKPDNDLDHSQNHWGLSENYSCTSSQFAEKNDYDEKKRVVYPFGVVKPGGREEDITLNDINKRILMPSARPVRHPVGDFACRPCVSADGPGLSGKAVVAFTKIQTLGRGTITIIRTKG”: the “soluble on expression in E. coli” value was “soluble”.

For “MEKKLPRIKALLTPGEVAKRSGVAVSALHFYESKGLITSIRNSGNQRRYKRDVLRYVAIIKIAQRIGIPLATIGEAFGVLPEGHTLSAKEWKQLSSQWREELDRRIHTLVALRDELDGCIGCGCLSRSDCPLRNPGDRLGEEGTGARLLEDEQN”, the “soluble on expression in E. coli” value was “soluble”.

As to “MSLRKFKSILLIDDDETSNFISEVIIKKLGITETISTVKNGVEALNFVSNNCTINCAPTCPQIIFLDLHMPVMDGFDFLKELKKQMPLYTQKFKIFVLSSSNNPADITKTKDFDVEGYIVKPLSQEKISMLLEDVAEGHHHHHH”, the “soluble on expression in E. coli” value is given as “not soluble”.

For “MGSDKIHHHHHHQTKAEKNGWRLGMQSYSFHLFPLTEALDKTQELGLKYIEIYPGHKLGGKWGDKVFDFNLDAQTQKEIKELAASKGIKIVGTGVYVAEKSSDWEKMFKFAKAMDLEFITCEPALSDWDLVEKLSKQYNIKISVHNHPQPSDYWKPENLLKAISGRSQSLGSCSDVGHWRREGLNQIDCLKQLKGRIISLHFKDIAPKKAGENEQHDVIWGTGILDVKGMLKELKSQNFKGVFSIEYEYNWENSVPDIKECIQYFNKTANEIL”, the “soluble on expression in E. coli” value is recorded as “not soluble”.

Consider “MQILFNDQAMQCAAGQTVHELLEQLDQRQAGAALAINQQIVPREQWAQHIVQDGDQILLFQVIAGG”, for which the “soluble on expression in E. coli” value is “soluble”.

On to “GSMENTDVFLGLHDFLERMRKPSAGDFVKSIKSFIVSFSNNAPDPEKDCAMVQEFFSKMEAAFRAHPLWSGCSEEELDSAGDGLEKYVMTKLFTRVFASNTEEVIADEKLFQKMSLVQQFISPENLDIQPTFQNESSWLLAQKELQKINMYKAPRDKLVCILNCCKVINNLLLNASIASNENAPGADEFLPVLIYVTIKANPPQLHSNLLYIQRYRRESKLVGEAAYFFTNILSAESFISNIDAKSISLDEAEFEKNMESARARISG”, for which the “soluble on expression in E. coli” value is given as “soluble”.

Consider “MKIAVTKFLGTNCDLDVCHAVKLAGGEPELVFFTQENLDSYKGAVIPGGFSYGDYLRAGAISARTPIIKGLKKMVEEGKPVLGICNGAQIGLEAGFSKGTLTNNLNAKFICKWVYIRVENNKTPFTQYYKKGEVLKIPIAHAEGRFYADDETLDYMYKNNMIVFKYCDETGEVTEEANPNGSIDNIAGVCNENQNCVLLMPHPERASEKILGSDDGLKMFKGMIDYAKRI”, for which the “soluble on expression in E. coli” value was “soluble”.

Consider “MLDANKLQQAVDQAYTQFHSLNGGQNADYIPFLANVPGQLAAVAIVTCDGNVYSAGDSDYRFALESISKVCTLALALEDVGPQAVQDKIGADPTGLPFNSVIALELHGGKPLSPLVNAGAIATTSLINAENVEQRWQRILHIQQQLAGEQVALSDEVNQSEQTTNFHNRAIAWLLYSAGYLYCDAMEACDVYTRQCSTLLNTIELATLGATLAAGGVNPLTHKRVLQADNVPYILAEMMMEGLYGRSGDWAYRVGLPGKSGVGGGILAVVPGVMGIAAFSPPLDEDGNSVRGQKMVASVAKQLGYNVFKG”, for which the “soluble on expression in E. coli” value is “soluble”.

With “MNFIFDIDGTICFDGCSIDSSIKQRLFKLRQANHNVIFASARPIRDLLPVIPEFADDTLIGGNGSIISKNGQIEIVSVINEHDISLIKKIIKKYQLSYIIDDKFNYASNLDSNNELYQRIDPDGKAQSLDMDEIRNPIKAILLNIDNKDFDMIAHQLVSQSHGIELIRHYSESYIDVTARGVDKYTTIQYILGTNSDYIAFGNDHNDVHMLEHASQGYFVTNQFIEHTSFFKNKNITVIDDTIYAICEVLDRYL”, the “soluble on expression in E. coli” value is reported as “not soluble”.

With “MTTVRQRIDTQHRDAIHDAQLNIYGSRLATCGSDRLVKIFEVRPNGQSYPMAELVGHSGPVWKVSWAHPKYGGLLASASYDKKVIIWNEQQGRWQKAYEWAAHEASTTCVAFAPHQYGLMLASASADGDIGILRYDNSSNEWISSKIQKCHEQGVNSVCWAPGSADPAAKKRLVSAGNDKNVKIWAFDDATNEWILEKTLAGHTDFVREAAWCPVTNNGQHTIVSCGMEGNLVLFRTSNIETEEWKAKLLETAPCALYHSSFSPCGSFLSVAGDDNVITIWRENLQGQWIKVPRDNKEREGMSQAVGAPGAQR”, the “soluble on expression in E. coli” value is recorded as “not soluble”.

With “GSHMLITASSSKEYLPDLLLFWQNYEYWITNIGLYKTKQRDLTRTPANLDTDTEECMFWMNYLQKDQSFQLMNFAMENLGALYFGSIGDISELYLRVEQYWDRRADKNHSVDGKYWDALIWSVFTMCIYYMPVEKLAEIFSVYPLHEYLGSNKRLNWEDGMQLVMCQNFARCSLFQLKQCDFMAHPDIRLVQAYLILATTTFPYDEPLLANSLLTQCIHTFKNFHVDDFRPLLNDDPVESIAKVTLGRIFYRLCGCDYLQSGPRKPIALHTEVSSLLQHAAYLQDLPNVDVYREENSTEVLYWKIISLDRDLDQYLNKSSKPPLKTLDAIRRELDIFQYKVDSLEEDFRSNNSRFQKFIALFQISTVSWKLFKMYLIYYDTADSLLKVIHYSKVIISLIVNNFHAKSEFFNRHPMVMQTITRVVSFISFYQIFVESAAVKQLLVDLTELTANLPTIFGSKLDKLVYLTERLSKLKLLWDKVQLLDSGDSFYHPVFKILQNDIKIIELKNDEMFSLIKGLGSLVPLNKLRQESLLEEEDENNTEPSDFRTIVEEFQSEYNISDILS”, the “soluble on expression in E. coli” value was “soluble”.

For “SADDFGFFSSSESGAPEAAEEDPAAAFLAQQESEIAGIENDEGFGAPAGSHAAPAQPGPTSGAGSEDMGTTVNGDVFQEANGPADGYAAIAQADRLTQEPESIRKWREEQRKRLQELDAASKVTEQEWREKAKKDLEEWNQRQSEQVEKNKINNRASEEAFVKESKEETPGTEWEKVAQLCDFNPKSSKQCKDVSRLRSVLMSLKQTPLSR”, the “soluble on expression in E. coli” value is “soluble”.

“MLTFKYLLASLLILLVSSQTWGQQSYGNSNQGYGQQQQGFSGFGQGSATNRQGMTGQGLLESSYQQGYGQNQGSMQGYSQQGYGGNSQQDYGYSQSQGSGMGVQGYGGSSQSYGQQAFAQQQRPQQGFQSNGFSGQQASGSMNSFGGQGGYGQNQNGFGGQSGFSGQSGWGSNSLSSANSNGNNNQGSSSGYQNNQGRHQGQGGGHSSSSNSVMSNNGYSSNSGYGNNNGPTPSFLNNVSSSAAQDYYNIVNNKSLTTNQINEQASNWASANSVQAQYIQYETNRSAIHTQATQNVSDIINNLATVQASIEGIQSNTSSSENDRQSAFQALQQAHPMEYSVLTSLQNQHEQTQYARMGSNGNSNSNYGNSNFNSNYGNNGYNHNGNNYFESTTATSAATKKKTTKATSG”: the “soluble on expression in E. coli” value is given as “not soluble”.

Regarding “MADANATICYLNGLSLHTINEVEKILLALPKKGDRCEVQVTKPLNGTIGRSTGDVIASKSMQIHDEPRPLSLSPPLQKSEKSSKSKKLSEYSCMSSTKEQMETVEIRNGSNASAAKKLQCKVLTDQVRVSPIVSCNGVILELDVEVTIPDREEKKKLKLEIECPDFVPARIKIGNKWKKIV”, the “soluble on expression in E. coli” value is recorded as “not soluble”.
